# From patent US8357523B2, “Beta-glucosidase variant enzymes and related polynucleotides” (Codexis, Inc., priority 2009, dated 2013)
# Experiment: High throughput cellobiose assay: fold improvement in cellobiase activity of CelA variants over a control enzyme (Tables 2A-2D, 3, 5, 6, 7)
# Format: biochemical
# Settings: 3.3 g/l cellobiose, 50° C. and pH 6.5; compared to native CelA (SEQ ID NO: 4)
row,Molecule,Fold improvement over wildtype CelA
1,59 (protein) STAIAQEGAAPAAILHPEKWPRPATQRLIDPAVEKRVDALLKQLSVEEKVGQVIQGDIGTITPEDLRKYPLGSILAGGNSGPNGDDRAPPKEWLDLADAFYRVSLEKRPGHTPIPVLFGIDAVHGHGNIGSATIFPHNIALGATHDPELLRRIGQVTAVEMAATGIDWTFAPALSVVRDDRWGRTYEGFSEDPEIVAAYSAAIVEGVQGKFGSKDFMAPGRIVASAKHFLADGGTDQGRDQGDARISEDELIRIHNAGYPPAIDAGVLTVMASFSSWQGIKHHGHKQLLTDVLKGQMGFNGFIVGDWNAHDQVPGCTKFNCPTSLIAGLDMYMAADSWKQLYENTLAQVKDGTIPMARLDDAVRRILRVKVLAGLFEKPAPKDRPGLPGLETLGSPEHRAVGREAVRKSLVLLKNDKGTLPLSPKARVLVAGDGADNIGKQSGGWTISWQGTGNRNDEFPGATSILGGIRDAVADAGGSVEFDVAGQYKTKPDVAIVVFGEEPYAEFQGDVETLEYQPDQKQDLALLKKLKDQGIPVVAVFLSGRPMWVNPELNASDAFVAAWLPGTEGGGVADVLFTDKAGKVQHDFAGKLSYSWPRTAAQTTVNRGDADYNPLFAYGYGLTYKDKSKVGTLPEESGVPAEARQNAGIYFRAGALRLPGRFL,+ (+ = 1.1 to 2.0 fold improvement over native CelA (SEQ ID NO: 4))
2,60 (protein) STAIAQEGAAPAAILHPEKWPRPATQRLIDPAVEKRVDALLKQLSVEEKVGQVIQGDIGTITPEDLRKYPLGSILAGGNSGPNGDDRAPPKEWLDLADAFYRVSLEKRPGHTPIPVLFGIDAVHGHGNIGSATIFPHNIALGATHDPELLRRIGKVTAVEMAATGIDWTFAPALSVVRDDRWGRTYEGFSEDPEIVAAYSAAIVEGVQGKFGSKDFMAPGRIVASAKHFLADGGTDQGRDQGDARISEDELIRIHNAGYPPAIDAGVLTVMASFSSWQGIKHHGHKQLLTDVLKGQMGFNGFIVGDWNAHDQVPGCTKFNCPTSLIAGLDMYMAADSWKQLYENTLAQVKDGTIPMARLDDAVRRILRVKVLAGLFEKPAPKDRPGLPGLETLGSPEHRAVGREAVRKSLVLLKNDKGTLPLSPKARVLVAGDGADNIGKQSGGWTISWQGTGNRNDEFPGATSILGGIRDAVADAGGSVEFDVAGQYKTKPDVAIVVFGEEPYAEFQGDVETLEYQPDQKQDLALLKKLKDQGIPVVAVFLSGRPMWVNPELNASDAFVAAWLPGTEGGGVADVLFTDKAGKVQHDFAGKLSYSWPRTAAQTTVNRGDADYNPLFAYGYGLTYKDKSKVGTLPEESGVPAEARQNAGIYFRAGALRLPGRFL,+ (+ = 1.1 to 2.0 fold improvement over native CelA (SEQ ID NO: 4))
3,61 (protein) STAIAQEGAAPAAILHPEKWPRPATQRLIDPAVEKRVDALLKQLSVEEKVGQVIQGDIGTITPEDLRKYPLGSILAGGNSGPNGDDRAPPKEWLDLADAFYRVSLEKRPGHTPIPVLFGIDAVHGHGNIGSATIFPHNIALGATHDPELLRRIGAVTAVEMAATGIDWTFAPALSVVRDDRWGRTYEGFSEDPEIVAAYSAAIVEGVQGKFGSKDFMAPGRIVASAKHFLADGGTDQGRDQGDARISEDELIRIHNAGYPPAIDAGVLTVMASFSSWQGIKHHGHKQLLTDVLKGQMGFNGFIVGDWNAHDQVPGCTKFNCPTSLIAGLDMYMAADSWKQLYENTLAQVKDGTIPMARLDDAVRRILRVKVLAGLFEKPAPKDRPGLPGLETLGSPEHRAVGREAVRKSLVLLKNDKGTLPLSPKARVLVAGDGADNIGKQSGGWTISWQGTGNRNDEFPGATSILGGIRDAVADAGGSVEFDVAGQYKTKPDVAIVVFGEEPYAEFQGDVETLEYQPDQKQDLALLKKLKDQGIPVVAVFLSGRPMWVNPELNASDAFVAAWLPGTEGGGVADVLFTDKAGKVQHDFAGKLSYSWPRTAAQTTVNRGDADYNPLFAYGYGLTYKDKSKVGTLPEESGVPAEARQNAGIYFRAGALRLPGRFL,+ (+ = 1.1 to 2.0 fold improvement over native CelA (SEQ ID NO: 4))
4,62 (protein) STAIAQEGAAPAAILHPEKWPRPATQRLIDPAVEKRVDALLKQLSVEEKVGQVIQGDIGTITPEDLRKYPLGSILAGGNSGPNGDDRAPPKEWLDLADAFYRVSLEKRPGHTPIPVLFGIDAVHGHGNIGSATIFPHNIALGATHDPELLRRIGWVTAVEMAATGIDWTFAPALSVVRDDRWGRTYEGFSEDPEIVAAYSAAIVEGVQGKFGSKDFMAPGRIVASAKHFLADGGTDQGRDQGDARISEDELIRIHNAGYPPAIDAGVLTVMASFSSWQGIKHHGHKQLLTDVLKGQMGFNGFIVGDWNAHDQVPGCTKFNCPTSLIAGLDMYMAADSWKQLYENTLAQVKDGTIPMARLDDAVRRILRVKVLAGLFEKPAPKDRPGLPGLETLGSPEHRAVGREAVRKSLVLLKNDKGTLPLSPKARVLVAGDGADNIGKQSGGWTISWQGTGNRNDEFPGATSILGGIRDAVADAGGSVEFDVAGQYKTKPDVAIVVFGEEPYAEFQGDVETLEYQPDQKQDLALLKKLKDQGIPVVAVFLSGRPMWVNPELNASDAFVAAWLPGTEGGGVADVLFTDKAGKVQHDFAGKLSYSWPRTAAQTTVNRGDADYNPLFAYGYGLTYKDKSKVGTLPEESGVPAEARQNAGIYFRAGALRLPGRFL,+ (+ = 1.1 to 2.0 fold improvement over native CelA (SEQ ID NO: 4))
5,63 (protein) STAIAQEGAAPAAILHPEKWPRPATQRLIDPAVEKRVDALLKQLSVEEKVGQVIQGDIGTITPEDLRKYPLGSILAGGNSGPNGDDRAPPKEWLDLADAFYRVSLEKRPGHTPIPVLFGIDAVHGHGNIGSATIFPHNIALGATHDPELLWRIGEVTAVEMAATGIDWTFAPALSVVRDDRWGRTYEGFSEDPEIVAAYSAAIVEGVQGKFGSKDFMAPGRIVASAKHFLADGGTDQGRDQGDARISEDELIRIHNAGYPPAIDAGVLTVMASFSSWQGIKHHGHKQLLTDVLKGQMGFNGFIVGDWNAHDQVPGCTKFNCPTSLIAGLDMYMAADSWKQLYENTLAQVKDGTIPMARLDDAVRRILRVKVLAGLFEKPAPKDRPGLPGLETLGSPEHRAVGREAVRKSLVLLKNDKGTLPLSPKARVLVAGDGADNIGKQSGGWTISWQGTGNRNDEFPGATSILGGIRDAVADAGGSVEFDVAGQYKTKPDVAIVVFGEEPYAEFQGDVETLEYQPDQKQDLALLKKLKDQGIPVVAVFLSGRPMWVNPELNASDAFVAAWLPGTEGGGVADVLFTDKAGKVQHDFAGKLSYSWPRTAAQTTVNRGDADYNPLFAYGYGLTYKDKSKVGTLPEESGVPAEARQNAGIYFRAGALRLPGRFL,+ (+ = 1.1 to 2.0 fold improvement over native CelA (SEQ ID NO: 4))
6,64 (protein) STAIAQEGAAPAAILHPEKWPRPATQRLIDPAVEKRVDALLKQLSVEEKVGQVIQGDIGTITPEDLRKYPLGSILAGGNSGPNGDDRAPPKEWLDLADAFYRVSLEKRPGHTPIPVLFGIDAVHGHGNIGSATIFPHNIALGATHDPELLRRIGEVTAVEMVATGIDWTFAPALSVVRDDRWGRTYEGFSEDPEIVAAYSAAIVEGVQGKFGSKDFMAPGRIVASAKHFLADGGTDQGRDQGDARISEDELIRIHNAGYPPAIDAGVLTVMASFSSWQGIKHHGHKQLLTDVLKGQMGFNGFIVGDWNAHDQVPGCTKFNCPTSLIAGLDMYMAADSWKQLYENTLAQVKDGTIPMARLDDAVRRILRVKVLAGLFEKPAPKDRPGLPGLETLGSPEHRAVGREAVRKSLVLLKNDKGTLPLSPKARVLVAGDGADNIGKQSGGWTISWQGTGNRNDEFPGATSILGGIRDAVADAGGSVEFDVAGQYKTKPDVAIVVFGEEPYAEFQGDVETLEYQPDQKQDLALLKKLKDQGIPVVAVFLSGRPMWVNPELNASDAFVAAWLPGTEGGGVADVLFTDKAGKVQHDFAGKLSYSWPRTAAQTTVNRGDADYNPLFAYGYGLTYKDKSKVGTLPEESGVPAEARQNAGIYFRAGALRLPGRFL,+ (+ = 1.1 to 2.0 fold improvement over native CelA (SEQ ID NO: 4))
7,65 (protein) STAIAQEGAAPAAILHPEKWPRPATQRLIDPAVEKRVDALLKQLSVEEKVGQVIQGDIGTITPEDLRKYPLGSILAGGNSGPNGDDRAPPKEWLDLADAFYRVSLEKRPGHTPIPVLFGIDAVHGHGNIGSATIFPHNIALGATHDPELLRRIGEVTAVEMAATGIDWTFAPALSVVRDDRWGRTYEGFSEDPEIVAAYSAAIVEGVQGKFGSKDFMAQGRIVASAKHFLADGGTDQGRDQGDARISEDELIRIHNAGYPPAIDAGVLTVMASFSSWQGIKHHGHKQLLTDVLKGQMGFNGFIVGDWNAHDQVPGCTKFNCPTSLIAGLDMYMAADSWKQLYENTLAQVKDGTIPMARLDDAVRRILRVKVLAGLFEKPAPKDRPGLPGLETLGSPEHRAVGREAVRKSLVLLKNDKGTLPLSPKARVLVAGDGADNIGKQSGGWTISWQGTGNRNDEFPGATSILGGIRDAVADAGGSVEFDVAGQYKTKPDVAIVVFGEEPYAEFQGDVETLEYQPDQKQDLALLKKLKDQGIPVVAVFLSGRPMWVNPELNASDAFVAAWLPGTEGGGVADVLFTDKAGKVQHDFAGKLSYSWPRTAAQTTVNRGDADYNPLFAYGYGLTYKDKSKVGTLPEESGVPAEARQNAGIYFRAGALRLPGRFL,+ (+ = 1.1 to 2.0 fold improvement over native CelA (SEQ ID NO: 4))
8,66 (protein) STAIAQEGAAPAAILHPEKWPRPATQRLIDPAVEKRVDALLKQLSVEEKVGQVIQGDIGTITPEDLRKYPLGSILAGGNSGPNGDDRAPPKEWLDLADAFYRVSLEKRPGHTPIPVLFGIDAVHGHGNIGSATIFPHNIALGATHDPELLRRIGEVTAVEMAATGIDWTFAPALSVVRDDRWGRTYEGFSEDPEIVAAYSAAIVEGVQGKFGSKDFMAEGRIVASAKHFLADGGTDQGRDQGDARISEDELIRIHNAGYPPAIDAGVLTVMASFSSWQGIKHHGHKQLLTDVLKGQMGFNGFIVGDWNAHDQVPGCTKFNCPTSLIAGLDMYMAADSWKQLYENTLAQVKDGTIPMARLDDAVRRILRVKVLAGLFEKPAPKDRPGLPGLETLGSPEHRAVGREAVRKSLVLLKNDKGTLPLSPKARVLVAGDGADNIGKQSGGWTISWQGTGNRNDEFPGATSILGGIRDAVADAGGSVEFDVAGQYKTKPDVAIVVFGEEPYAEFQGDVETLEYQPDQKQDLALLKKLKDQGIPVVAVFLSGRPMWVNPELNASDAFVAAWLPGTEGGGVADVLFTDKAGKVQHDFAGKLSYSWPRTAAQTTVNRGDADYNPLFAYGYGLTYKDKSKVGTLPEESGVPAEARQNAGIYFRAGALRLPGRFL,+ (+ = 1.1 to 2.0 fold improvement over native CelA (SEQ ID NO: 4))
